From paper PMC5356278, “Identification of residues important for the activity of aldehyde-deformylating oxygenase through investigation into the structure-activity relationship” (BMC Biotechnology, 2017) come the findings set out here.

B1: cADO-sll0208 (sll0208) (Synechocystis sp. PCC 6803 substr. Kazusa; L148R) (protein)
chain: MPELAVRTEFDYSSEIYKDAYSRINAIVIEGEQEAYSNYLQMAELLPEDKEELTRLAKMENRHKKGFQACGNNLQVNPDMPYAQEFFAGLHGNFQHAFSEGKVVTCLLIQALIIEAFAIAAYNIYIPVADDFARKITEGVVKDEYTHRNYGEEWLKANFATAKEELEQANKENLPLVWKMLNQVQGDAKVLGMEKEALVEDFMISYGEALSNIGFSTREIMRMSSYGLAGV
notes: full gene in pET-28a(+) (NdeI/XhoI), E. coli BL21(DE3), nickel column; apo enzyme reconstituted with stoichiometric ferrous iron (diferrous form)
B2: cADO-sll0208 (sll0208) (Synechocystis sp. PCC 6803 substr. Kazusa; D49H/N123H) (protein)
chain: B1 chain with D49H, N123H, R148L
notes: as for B1
B3: cADO-sll0208 (sll0208) (Synechocystis sp. PCC 6803 substr. Kazusa) (protein)
chain: B1 chain with R148L
notes: as for B1
B4: cADO-1593 (1593) (Synechococcus elongatus PCC 7942 = FACHB-805; L146T) (protein)
chain: MPQLEASLELDFQSESYKDAYSRINAIVIEGEQEAFDNYNRLAEMLPDQRDELHKLAKMEQRHMKGFMACGKNLSVTPDMGFAQKFFERLHENFKAAAAEGKVVTCLLIQSLIIECFAIAAYNIYIPVADAFARKITEGVVRDEYTHRNFGEEWLKANFDASKAELEEANRQNLPLVWLMLNEVADDARELGMERESLVEDFMIAYGEALENIGFTTREIMRMSAYGLAAV
notes: codon-optimised synthetic gene, E. coli BL21(DE3), nickel column; apo enzyme reconstituted with stoichiometric ferrous iron (diferrous form)
B5: cADO-1593 (1593) (Synechococcus elongatus PCC 7942 = FACHB-805; F150Y/Q49H) (protein)
chain: B4 chain with Q49H, T146L, F150Y
notes: as for B4
B6: cADO-1593 (1593) (Synechococcus elongatus PCC 7942 = FACHB-805; F150Y) (protein)
chain: B4 chain with T146L, F150Y
notes: as for B4
B7: cADO-1593 (1593) (Synechococcus elongatus PCC 7942 = FACHB-805; F150Y/N123H/Q49H) (protein)
chain: B4 chain with Q49H, N123H, T146L, F150Y
notes: as for B4
B8: cADO-1593 (1593) (Synechococcus elongatus PCC 7942 = FACHB-805; W178R) (protein)
chain: B4 chain with T146L, W178R
notes: as for B4

Substitutions are numbered along the chain they refer to. Numbers in names are those of the source.

Substrate in one data set: CCCCCCC=O
Description: purified protein. The following applies: NADH 750 uM, PMS 75 uM, catalase 1 mg/ml, ferrous ammonium sulfate 80 uM, 100 mM HEPES pH 7.2, 100 mM KCl. It counts as biochemical, Synechocystis sp. PCC 6803.
B1: the Km is 320 ± 80 µM, the kcat was 0.0152 ± 0.00133 s⁻¹ and the kcat/Km came out at 47.3 ± 5 M⁻¹ s⁻¹.

For B2, the Km came to 380 ± 80 µM, the catalytic constant (kcat) is 0.0138 ± 0.00133 s⁻¹ and the kcat/Km was 36.3 ± 3.33 M⁻¹ s⁻¹.

In the case of B3, the Km is 350 ± 70 µM, the kcat was determined as 0.00983 ± 0.000667 s⁻¹ and the kcat/Km came out at 28.2 ± 3.33 M⁻¹ s⁻¹.

Substrate in the next data set: CCCCCCC=O
As to the kind of experiment: purified protein. The following applies: NADH 750 uM, PMS 75 uM, catalase 1 mg/ml, ferrous ammonium sulfate 80 uM, 100 mM HEPES pH 7.2, 100 mM KCl. It counts as biochemical, Synechococcus elongatus. This is another data set of the same source.
In the case of B4, the Km was 340 ± 80 µM, the kcat was 0.0157 ± 0.00133 s⁻¹ and the kcat/Km was 46 ± 5 M⁻¹ s⁻¹.

In the case of B5, the Km stood at 330 ± 50 µM, the kcat is 0.0145 ± 0.000667 s⁻¹ and the kcat/Km turned out to be 44 ± 3.33 M⁻¹ s⁻¹.

Regarding B6, the Km was 200 ± 40 µM, the catalytic constant (kcat) worked out at 0.0125 ± 0.000667 s⁻¹ and the kcat/Km was 62.5 ± 6.67 M⁻¹ s⁻¹.

For the protein B7, the Km turned out to be 350 ± 20 µM, the kcat stood at 0.0173 ± 0.000333 s⁻¹ and the kcat/Km was determined as 49.5 ± 5 M⁻¹ s⁻¹.

As for B8, the Km amounted to 340 ± 80 µM, the kcat came to 0.0302 ± 0.0025 s⁻¹ and the specificity constant (kcat/Km) was determined as 88.7 ± 6.67 M⁻¹ s⁻¹.
